{
  "source": "patent US20140308259A1",
  "about": "(University of Pennsylvania, published 2014)",
  "binders": {"B1": {"name": "anti-B7H4 scFv clone 3#54 (scFv)", "scFv": "RPVLTQPPSAAGTPGQRVTISCSGSSSNIGSNYVYWYQQLPGMAPKLLIYTNNQRPSGVPGRFSGSKSGTSASLAISGLRSEDEADYYCAAWDDSLNGWVFGGGTELTVLGGSSRSSSSGGGGSGGGGQVQLQESGPGLVKPSETLSLTCNVSGRSVSSGFYWSWIRQRPGKGLEWVGSIYRSGLTYYNPSLKSRVTISVDTSKNQFSLKLSSVTAADTAVYYCARATPWYYYGMDVWGQGTTVTVSSFEGSEQ"}, "B2": {"name": "anti-B7H4 scFv clone 3#68 (scFv)", "scFv": "QPGLTQPPSASGTPGQRVTISCSGSSSNIGSNYVYWYQQFPGTAPKLLIYRNNQRPSGVPDRFSGSKSGTSASLAISGLRSEDEADYYCAAWDDSLSVWVFGGGTKVTVLGGSSRSSSSGGSGSGGGGQVTLKESGAEVKNPGSSVKVSCKASGGTFSSYAISWLRQAPGQGLEWMGWINPNSGGSDYAQRFQGRVTMTRDTSINTVYMELSRLRSDDTAVYYCARVEKRGYYYGMDVWGQGTMVTVSSFEGSEQ"}},
  "target": "T1, human B7-H4 at the cell surface (human, UniProt Q7Z7D3 25-282)",
  "T1 sequence (looked up)": "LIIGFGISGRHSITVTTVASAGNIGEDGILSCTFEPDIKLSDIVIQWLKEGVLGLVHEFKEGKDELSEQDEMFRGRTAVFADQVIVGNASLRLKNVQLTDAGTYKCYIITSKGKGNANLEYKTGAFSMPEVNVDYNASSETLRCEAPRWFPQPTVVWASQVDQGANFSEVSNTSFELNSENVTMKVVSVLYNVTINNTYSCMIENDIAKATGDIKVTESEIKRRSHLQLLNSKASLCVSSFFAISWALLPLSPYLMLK",
  "assay": "cell-based or functional assay",
  "data": [
    {"binder": "B1", "values": [
      {"measurement": "IFN-γ production of MART-1 TCR T cells in presence of B7-H4+ TAMs", "result": "> 2", "unit": "folds"}
    ]},
    {"binder": "B2", "values": [
      {"measurement": "IFN-γ production of MART-1 TCR T cells in presence of B7-H4+ TAMs", "result": "> 2", "unit": "folds"}
    ]}
  ]
}
